In patent publication US8691536B2, “Pectin lyase, pectin lyase polynucleotide, enzyme preparation, and method for producing single cells of plant tissue” (Bio-I Co., Ltd., priority 2009, dated 2014):

Tests used:
[1] = pH stability of pectin lyase; format: physicochemical; details: 24 hours at 4° C., activity then measured at pH 4.5, 25° C.
Experimental: (§1) It should be noted that a 20 mM phosphate buffer was used for the pH 6.0-7.5 enzymatic reaction solution, and a 50 mM Tris-HCl buffer was used for the pH 7.5-9.5 enzymatic reaction solution. In cases where a McIlvaine buffer was used in a pH range of 3-6, the pectin lyase activity was measured in the same manner. Moreover, in order to determine the pH stability, the pH of enzyme solutions containing purified enzymes was adjusted to 3.0, 4.0, 5.0, 6.0, 7.0, 8.0, 9.0 and 10.0, using either HCl or NaOH. After allowing these enzyme solutions to stand for 24 hours at 4° C., the pectin lyase activity was measured at 25° C. using a 50 mM acetate buffer (pH 4.5).
The pH stability was evaluated using the formula (activity after standing/activity before standing)×100. As a result, the specific activity and the pH stability of pectin lyase at various pH levels are represented in the graph in FIG. 1, where 1.0 is pectin lyase at pH 4.5. The optimal pH for pectin lyase activity according to the present invention was 4.5 in the acetate buffer, and 4.8 in the McIlvaine buffer, and was thus found to be stable in a pH range of 3-6.

sweet potato discs [2] = assay: Maceration activity, sweet potato disc decay at 30° C.; format: biochemical
Text: Maceration activity can be measured, for example, by immersing a sweet potato disc in the enzyme solution, and measuring the time elapsed until the sweet potato disc uniformly decays in the enzyme solution as a result of insoluble pectin being degraded by enzymatic action. In the alternative, other publicly-known methods may be used.
A column 6 mm in diameter is removed from the center of a sweet potato using a cork borer. After using a knife to cut sweet potato discs about 0.3 mm thick, the discs are immersed for 60 seconds in 70% ethanol and then rinsed with distilled water. Into a test tube are placed 300 μL of enzyme solution with pH adjusted to 3.5 using HCl, and 200 μL of 50 mM acetate buffer (pH 3.5), and after these are mixed, a constant temperature is set at 30° C., and 3 of the above sweet potato discs are placed therein, and a reaction is initiated. Every 15 minutes after the reaction starts, agitation is carried out for 10 seconds using a test tube mixer, and the degree of decay is visually observed. The strength of the maceration activity is expressed by the reciprocal of the time needed for 2 of the 3 sweet potato discs to almost uniformly decay (Reference literature: Toshihiko Suganuma, Tetsuro Fukumoto, Youko Ikemizu, Katsuyuki Nakama, Shigeo Fujimoto, and Tomonori Nagahama, Bulletin of the Faculty of Agriculture, Kagoshima University, 37, 89-98, Mar. 16, 1987).
A column 6 mm in diameter was removed from the center of a sweet potato (about 500 g) using a cork borer. After using a knife to cut sweet potato discs about 0.3 mm thick, the discs were immersed for 60 seconds in 70% ethanol and then rinsed with distilled water. Into a test tube were placed 300 μL of purified enzyme solution (1.30 μg/mL) and 200 μL of a buffer, and after these were mixed, a constant temperature was set at 30° C., and 3 of the above sweet potato discs were placed therein, and a reaction was initiated.
The buffers were 50 mM acetate buffers with pH 3.0, 3.5, 4.0, 4.5, 5.0, and 6.0, a 50 mM HEPES buffer with pH 7.0, and 50 mM Tris-HCl buffers with pH 8.0 and 9.0. After starting the reaction, stirring was carried out for 10 seconds with a test tube mixer every 15 minutes, and the degree of decay was visually observed. The strength of the maceration activity was expressed by the reciprocal of the time needed for 2 of the 3 sweet potato discs to almost uniformly decay.
In order to evaluate the strength of the maceration activity of the pectin lyase of the present invention, in a Comparative Example, two commercially available enzyme preparations, Macerozyme R10 and Pectolyase Y-23 were dissolved in purified water so that the amount of protein in the respective enzyme solutions was 1.30 μg/ml, and these were subjected to the test described above.

[3] = Pectin lyase activity with HM pectin in McIlvaine buffer; format: biochemical
Experimental: In order to determine the kM value of the isolated and purified pectin lyase having maceration activity (SIGMA/P9561, derived from citrus fruit, degree of esterification <90%), a McIlvaine buffer (0.1 M citric acid, 0.2 M phosphoric acid) adjusted to pH 4.8 was used in measuring the enzyme activity when the final concentration of pectin was changed.
In addition, under conditions of 30° C., and within a pH range of 3.0-7.0, a McIlvaine buffer was used to measure the pectin lyase activity when the ionic strength of the various buffers was adjusted to 0.5 using KCl.
The pectin lyase activity was measured as described below. First, a McIlvaine buffer was used in the enzymatic reaction solution, and an HM pectin substrate (SIGMA/P9561, derived from citrus fruit, degree of esterification <90%) was used to obtain a final concentration of 3 mg/mL. The ionic strength of the enzymatic reaction solution was adjusted in advance to I=0.3 or 0.5, using KCl, and the enzyme solution was 50 μL, and the total amount of the enzymatic reaction solution was 500 μL. Measurements were carried out in the same manner as in [C] 2. (2) (Paloma Sanchez-Tones, Jaap Visser, and Jacques A. E. Benen, Biochem. J., 370, 331-337, Feb. 15, 2003), except that the temperature was 30° C.

sweet potato discs [4] = assay: Maceration activity, sweet potato disc decay at 45° C. in McIlvaine buffer; format: biochemical; details: for specific maceration activity relative to N400 strain PLA: per 1 mg of protein, at optimal pH
Experimental: The maceration activity was measured as described below. First, sweet potato discs were prepared in the same manner as described above. Then, 50 μL of enzyme solution and 450 μL of buffer were placed in a test tube and mixed, forming a test solution held at a constant temperature of 45° C., then 1 of the above sweet potato discs were placed therein, and a reaction was initiated. A McIlvaine buffer was used as the buffer, and the ionic strength of the test solution (total of 500 μL) was adjusted in advance to I=0.3 or 0.5, using KCl. After the reaction started, stirring was carried out in the manner described above, and the degree of decay was visually observed. Three specimens each were prepared under the various conditions, and reactions of specimens under identical conditions were initiated simultaneously. The strength of the maceration activity under those conditions was expressed by the reciprocal of the time needed for any 2 of the sweet potato discs of the 3 specimens under identical conditions (total of 3) to almost uniformly decay.

[5] = Test to determine the maximum temperature of pectin lyase / heat deactivation; format: physicochemical; details: 15 minutes at 121° C.
[6] = Pectin lyase activity (absorbance at 235 nm, acetate buffer); format: biochemical
Experimental: An example of a method for measuring pectin lyase activity is to measure over time the absorbance of the maximum absorption wavelength at 235 nm by unsaturated polygalacturonid formed as a result the substrate being degraded by enzymatic action. In the alternative, other publicly-known methods may be used.
First, 50 μL of a solution of 2 wt. % of pectin (SIGMA/P9436, derived from citrus fruit) adjusted to pH 4.5 using NaOH or HCl, and 50 μL of enzyme solution were prepared. The 50 μL of wt. 2% pectin solution was mixed with 400 μL of 50 mM acetate buffer (pH 4.5) to prepare in advance a total of 450 μL, to which 50 μL of enzyme solution is to be added for a total of 500 μL as an enzymatic reaction solution to be used when measuring activity. In order to ensure uniform diffusion of the substrate in the reaction solution and to achieve stabilization, NaCl is added to obtain a final concentration of 0.1 M.
The enzyme solution and the enzymatic reaction solution without the enzyme solution are each incubated for 10 minutes at 25° C., after which 50 μL of the enzyme solution is mixed with 450 μL of the enzymatic reaction solution without the enzyme solution. An enzymatic reaction is then initiated, and measurements of absorbance at 235 nm are taken continuously for 10 minutes at 25° C. using a spectrometer. The amount of resulting unsaturated polygalacturonid is computed using a molecular absorbance coefficient of 5200 (M^−1cm^−1) (Paloma Sanchez-Torres, Jeap Visser, and Jacques A. E. Benen, Biochem. J., 370, 331-337, Feb. 15, 2003), and 1 unit (1 U) of pectin lyase activity was set at the amount of unsaturated polygalacturonid formed per 1 μmmol of unsaturated digalacturonid per minute.
In order to determine the optimal pH for pectin lyase activity of pectin lyase having maceration activity produced from the strain Aspergillus niger NBRC31125, the enzyme activity at various pH levels was measured using the above-described enzymatic reaction solution with modified pH (the enzymatic reaction solution described in [C] 2. (1) above).
as §1

[7] = Effects of metallic ions on pectin lyase activity; format: biochemical; details: Ca^2+ 1 mM, acetate buffer pH 4.5, 25° C.
Experimental: Tests were conducted on the effects of metallic ions (Ca^2+, Ba^2+, Co^2+, Cu^2+, Mg^2+, Mn^2+, Zn^2+, and Fe^2+) of pectin lyase having maceration activity produced from the strain Aspergillus niger NBRC31125 on pectin lyase activity.
The test method involved the use of chlorides of various metals, and adjusting their final concentration in the enzymatic reaction solution to 1 mM, and calculating the percentage of change in activity depending on the presence or absence of metallic ions. The enzymatic reaction solution used a 50 mM acetate buffer and a pH of 4.5, and measurements were taken at 10-minute intervals at 25° C.

[8] = McIlvaine buffer pH 4.8, Lineweaver-Burk plot
[9] = McIlvaine buffer, I=0.3, 45° C.

B1: pectin lyase of the present invention: Pectin lyase with maceration activity purified from Aspergillus niger NBRC31125; SEQ ID NO: 2; PLA mutant differing in 9 amino acids from N400 PLA (protein, listed as Aspergillus sp.)
chain: VGVSGSAEGFAEGVTGGGSATPVYPDTIDELVSYLGDDEARVIVLTKTFDFTDSEGTTTGTGCAPWGTASACQVAIDQDDWCENYEPDAPSVSVEYYNAGTLGITVTSNKSLIGEGSSGAIKGKGLRIVSGAENIIIQNIAVTDINAKYVWGGDAITLDDCDLVWIDHVTTARIGRQHYVLGTSADNRVSLTNNYIDGVSDYSATCDGYHYWAIYLDGDADLVTMKGNYIYHTSGRSPKVQDNTLLHAVNNYWYDISGHAFEIGEGGYVLAEGNVFQNVDTVLETYEGEAFTVPSTTAGEVCSTYLGRDCVINGFGSSGTFSEDSTSFLSDFEGKNIASASAYTSVASSVVANAGQGNL
pH range in which stable [1]: 3-6 | optimal pH for maceration activity (sweet potato discs [2]; 30° C., enzyme solution 1.30 μg/mL protein, buffers pH 3.0-9.0): ~3.5 | maceration activity per 390 ng of protein (sweet potato discs [2]; at optimal pH, 30° C.): 0.15 h⁻¹ | specific maceration activity at pH 3.0 relative to Macerozyme R10 (sweet potato discs [2]; pH 3.0): 27.7 times | specific maceration activity at pH 3.0 relative to Pectolyase Y-23 (sweet potato discs [2]; pH 3.0): 15.6 times | maceration activity of enzyme solution used for pectin lysate (sweet potato discs [2]; pH 3.0, 0.5 mL enzyme solution (500 ng purified pectin lyase; 2% Macerozyme A; 0.16% Pectolyase Y-23)): 0.18 h⁻¹ | maceration activity (sweet potato discs [2]; pH 5.0 or lower): maceration activity was observed | decay of sweet potato discs (sweet potato discs [2]; pH 6.0, 7.0, 8.0, and 9.0): no decay occurred at all | optimal pH for pectin lyase activity ([3]; 30° C., McIlvaine buffer pH 3.0-7.0, ionic strength 0.5 with KCl (FIG. 2)): 4.8 | specific pectin lyase activity ([3]; 30° C., McIlvaine buffer, I=0.5, at optimal pH): 102 U/mg | Km value [3, 8]: 5.4 mg/mL | Vmax value [3, 8]: 140 U/mg | optimal pH of pectin lyase activity ([3]; McIlvaine buffer, I=0.3, 30° C.): 4.0 | optimal pH of pectin lyase activity ([3]; McIlvaine buffer, I=0.5, 30° C.): 5.0 | optimal pH of maceration activity (sweet potato discs [4]; [9]): 4.0 | specific maceration activity per 1 mg (sweet potato discs [4]; [9]): 7400 h⁻¹ mg⁻¹ | optimal pH of maceration activity (sweet potato discs [4]; McIlvaine buffer, I=0.5, 45° C.): 5.0 | ratio of the maceration activity to the pectin lyase activity (sweet potato discs [4]; maceration activity/pectin lyase activity of 1 mg of enzyme): 72.5 | specific maceration activity relative to N400 strain PLA (sweet potato discs [4]): about 3 times | specific maceration activity relative to N400 strain PLA (sweet potato discs [4]; listed as protein of the present invention): 3 times | specific maceration activity relative to N400 strain PLA (sweet potato discs [4]; listed as this pectin lyase): about 3 times | deactivation by boiling treatment [5]: completely deactivated | pectin lyase activity ([6]; 50 mM acetate buffer pH 4.5, 25° C.): 54.7 U/mg | optimal pH for pectin lyase activity ([6]; McIlvaine buffer): 4.8 | optimal pH for pectin lyase activity ([6]; acetate buffer): 4.5 | pectin lyase activity relative to crude enzyme solution ([6]; purified vs crude enzyme solution): 61 times | Activity (%) vs. non-addition of ions [7]: 120%
